# B1: CPEB3 Ribozyme (parent)
# chain: GGGGGCCACAGCAGAAGCGUUCACGUCGCGGCCCCUGUCAGAUUCUGGUGAAUCUGCGAAUUCUGCUGU
# Variants of: B1
# Assay: self-cleavage, relative activity (ratio to wild type); higher = more cleavage; co-transcriptional
row,Variant,self-cleavage
1,GGGGGCCACAGCAGAAGCGUUCACGUCGCGGACCCUGUCAGAAUCUGGUGAAUCUGCGAAUUCUGCUGU [C32A U43A],0.345
2,GGGGGCCACAGCAGAAGCGUUCACGUCGCGGACCCUGUCAGACUCUGGUGAAUCUGCGAAUUCUGCUGU [C32A U43C],0.441
3,GGGGGCCACAGCAGAAGCGUUCACGUCGCGGACCCUGUCAGAUACUGGUGAAUCUGCGAAUUCUGCUGU [C32A U44A],0.357
4,GGGGGCCACAGCAGAAGCGUUCACGUCGCGGACCCUGUCAGAUGCUGGUGAAUCUGCGAAUUCUGCUGU [C32A U44G],0.469
5,GGGGGCCACAGCAGAAGCGUUCACGUCGCGGACCCUGUCAGAUUCAGGUGAAUCUGCGAAUUCUGCUGU [C32A U46A],0.574
6,GGGGGCCACAGCAGAAGCGUUCACGUCGCGGACCCUGUCAGAUUCCGGUGAAUCUGCGAAUUCUGCUGU [C32A U46C],0.776
7,GGGGGCCACAGCAGAAGCGUUCACGUCGCGGACCCUGUCAGAUUCGGGUGAAUCUGCGAAUUCUGCUGU [C32A U46G],0.729
8,GGGGGCCACAGCAGAAGCGUUCACGUCGCGGACCCUGUCAGAUUCUGGAGAAUCUGCGAAUUCUGCUGU [C32A U49A],0.871
9,GGGGGCCACAGCAGAAGCGUUCACGUCGCGGACCCUGUCAGAUUCUGGCGAAUCUGCGAAUUCUGCUGU [C32A U49C],0.704
10,GGGGGCCACAGCAGAAGCGUUCACGUCGCGGACCCUGUCAGAUUCUGGUGAACCUGCGAAUUCUGCUGU [C32A U53C],0.455
11,GGGGGCCACAGCAGAAGCGUUCACGUCGCGGACCCUGUCAGAUUCUGGUGAAGCUGCGAAUUCUGCUGU [C32A U53G],0.419
12,GGGGGCCACAGCAGAAGCGUUCACGUCGCGGACCCUGUCAGAUUCUGGUGAAUCAGCGAAUUCUGCUGU [C32A U55A],0.622
13,GGGGGCCACAGCAGAAGCGUUCACGUCGCGGACCCUGUCAGAUUCUGGUGAAUCCGCGAAUUCUGCUGU [C32A U55C],0.393
14,GGGGGCCACAGCAGAAGCGUUCACGUCGCGGACCCUGUCAGAUUCUGGUGAAUCGGCGAAUUCUGCUGU [C32A U55G],0.451
15,GGGGGCCACAGCAGAAGCGUUCACGUCGCGGACCCUGUCAGAUUCUGGUGAAUCUGCGAAAUCUGCUGU [C32A U61A],0.406
16,GGGGGCCACAGCAGAAGCGUUCACGUCGCGGACCCUGUCAGAUUCUGGUGAAUCUGCGAACUCUGCUGU [C32A U61C],0.365
17,GGGGGCCACAGCAGAAGCGUUCACGUCGCGGACCCUGUCAGAUUCUGGUGAAUCUGCGAAGUCUGCUGU [C32A U61G],0.421
18,GGGGGCCACAGCAGAAGCGUUCACGUCGCGGACCCUGUCAGAUUCUGGUGAAUCUGCGAAUCCUGCUGU [C32A U62C],0.339
19,GGGGGCCACAGCAGAAGCGUUCACGUCGCGGACCCUGUCAGAUUCUGGUGAAUCUGCGAAUUCAGCUGU [C32A U64A],0.519
20,GGGGGCCACAGCAGAAGCGUUCACGUCGCGGACCCUGUCAGAUUCUGGUGAAUCUGCGAAUUCCGCUGU [C32A U64C],0.499
21,GGGGGCCACAGCAGAAGCGUUCACGUCGCGGACCCUGUCAGAUUCUGGUGAAUCUGCGAAUUCGGCUGU [C32A U64G],0.726
22,GGGGGCCACAGCAGAAGCGUUCACGUCGCGGACCCUGUCAGAUUCUGGUGAAUCUGCGAAUUCUGCAGU [C32A U67A],0.956
23,GGGGGCCACAGCAGAAGCGUUCACGUCGCGGACCCUGUCAGAUUCUGGUGAAUCUGCGAAUUCUGCCGU [C32A U67C],0.882
24,GGGGGCCACAGCAGAAGCGUUCACGUCGCGGACCCUGUCAGAUUCUGGUGAAUCUGCGAAUUCUGCGGU [C32A U67G],0.936
25,GGGGGCCACAGCAGAAGCGUUCACGUCGCGGACCCUGUCAGAUUCUGGUGAAUCUGCGAAUUCUGCUGC [C32A U69C],1.03
26,GGGGGCCACAGCAGAAGCGUUCACGUCGCGGGCCCUGUCAGAUUCUGGUGAAUCUGCGAAUUCUGCUGU [C32G],0.584

row,Variant,self-cleavage
1,GGGGGCCACAGCAGAAGCGUUCACGUCGCGGGCCCUGUCCGAUUCUGGUGAAUCUGCGAAUUCUGCUGU [C32G A40C],0.308
2,GGGGGCCACAGCAGAAGCGUUCACGUCGCGGGCCCUGUCGGAUUCUGGUGAAUCUGCGAAUUCUGCUGU [C32G A40G],0.442
3,GGGGGCCACAGCAGAAGCGUUCACGUCGCGGGCCCUGUCUGAUUCUGGUGAAUCUGCGAAUUCUGCUGU [C32G A40U],0.281
4,GGGGGCCACAGCAGAAGCGUUCACGUCGCGGGCCCUGUCAGAUUCUGGUGCAUCUGCGAAUUCUGCUGU [C32G A51C],0.353
5,GGGGGCCACAGCAGAAGCGUUCACGUCGCGGGCCCUGUCAGAUUCUGGUGUAUCUGCGAAUUCUGCUGU [C32G A51U],0.419
6,GGGGGCCACAGCAGAAGCGUUCACGUCGCGGGCCCUGUCAGAUUCUGGUGACUCUGCGAAUUCUGCUGU [C32G A52C],0.435
7,GGGGGCCACAGCAGAAGCGUUCACGUCGCGGGCCCUGUCAGAUUCUGGUGAAUCUGCGGAUUCUGCUGU [C32G A59G],0.586
8,GGGGGCCACAGCAGAAGCGUUCACGUCGCGGGCCCUGUCAGAUUCUGGUGAAUCUGCGUAUUCUGCUGU [C32G A59U],0.206
9,GGGGGCCACAGCAGAAGCGUUCACGUCGCGGGCCCUGUCAGAUUCUGGUGAAUCUGCGAGUUCUGCUGU [C32G A60G],0.267
10,GGGGGCCACAGCAGAAGCGUUCACGUCGCGGGACCUGUCAGAUUCUGGUGAAUCUGCGAAUUCUGCUGU [C32G C33A],0.309
11,GGGGGCCACAGCAGAAGCGUUCACGUCGCGGGGCCUGUCAGAUUCUGGUGAAUCUGCGAAUUCUGCUGU [C32G C33G],0.179
12,GGGGGCCACAGCAGAAGCGUUCACGUCGCGGGUCCUGUCAGAUUCUGGUGAAUCUGCGAAUUCUGCUGU [C32G C33U],0.287
13,GGGGGCCACAGCAGAAGCGUUCACGUCGCGGGCUCUGUCAGAUUCUGGUGAAUCUGCGAAUUCUGCUGU [C32G C34U],0.363
14,GGGGGCCACAGCAGAAGCGUUCACGUCGCGGGCCAUGUCAGAUUCUGGUGAAUCUGCGAAUUCUGCUGU [C32G C35A],0.143
15,GGGGGCCACAGCAGAAGCGUUCACGUCGCGGGCCGUGUCAGAUUCUGGUGAAUCUGCGAAUUCUGCUGU [C32G C35G],0.303
16,GGGGGCCACAGCAGAAGCGUUCACGUCGCGGGCCCUGUUAGAUUCUGGUGAAUCUGCGAAUUCUGCUGU [C32G C39U],0.332
17,GGGGGCCACAGCAGAAGCGUUCACGUCGCGGGCCCUGUCAGAUUGUGGUGAAUCUGCGAAUUCUGCUGU [C32G C45G],0.434
18,GGGGGCCACAGCAGAAGCGUUCACGUCGCGGGCCCUGUCAGAUUCUGGUGAAUAUGCGAAUUCUGCUGU [C32G C54A],0.356
19,GGGGGCCACAGCAGAAGCGUUCACGUCGCGGGCCCUGUCAGAUUCUGGUGAAUGUGCGAAUUCUGCUGU [C32G C54G],0.335
20,GGGGGCCACAGCAGAAGCGUUCACGUCGCGGGCCCUGUCAGAUUCUGGUGAAUCUGGGAAUUCUGCUGU [C32G C57G],0.263
21,GGGGGCCACAGCAGAAGCGUUCACGUCGCGGGCCCUGUCAGAUUCUGGUGAAUCUGCGAAUUAUGCUGU [C32G C63A],0.3
22,GGGGGCCACAGCAGAAGCGUUCACGUCGCGGGCCCUGUCAGAUUCUGGUGAAUCUGCGAAUUCUGGUGU [C32G C66G],0.227
23,GGGGGCCACAGCAGAAGCGUUCACGUCGCGGGCCCUAUCAGAUUCUGGUGAAUCUGCGAAUUCUGCUGU [C32G G37A],0.195
24,GGGGGCCACAGCAGAAGCGUUCACGUCGCGGGCCCUCUCAGAUUCUGGUGAAUCUGCGAAUUCUGCUGU [C32G G37C],0.184
25,GGGGGCCACAGCAGAAGCGUUCACGUCGCGGGCCCUUUCAGAUUCUGGUGAAUCUGCGAAUUCUGCUGU [C32G G37U],0.149
26,GGGGGCCACAGCAGAAGCGUUCACGUCGCGGGCCCUGUCAAAUUCUGGUGAAUCUGCGAAUUCUGCUGU [C32G G41A],0.35

row,Variant,self-cleavage
1,GGGGGCCACAGCAGAAGCGUUCACGUCGCGGGCCCUGUCACAUUCUGGUGAAUCUGCGAAUUCUGCUGU [C32G G41C],0.267
2,GGGGGCCACAGCAGAAGCGUUCACGUCGCGGGCCCUGUCAGAUUCUAGUGAAUCUGCGAAUUCUGCUGU [C32G G47A],0.673
3,GGGGGCCACAGCAGAAGCGUUCACGUCGCGGGCCCUGUCAGAUUCUCGUGAAUCUGCGAAUUCUGCUGU [C32G G47C],0.683
4,GGGGGCCACAGCAGAAGCGUUCACGUCGCGGGCCCUGUCAGAUUCUGAUGAAUCUGCGAAUUCUGCUGU [C32G G48A],0.62
5,GGGGGCCACAGCAGAAGCGUUCACGUCGCGGGCCCUGUCAGAUUCUGUUGAAUCUGCGAAUUCUGCUGU [C32G G48U],0.562
6,GGGGGCCACAGCAGAAGCGUUCACGUCGCGGGCCCUGUCAGAUUCUGGUCAAUCUGCGAAUUCUGCUGU [C32G G50C],0.299
7,GGGGGCCACAGCAGAAGCGUUCACGUCGCGGGCCCUGUCAGAUUCUGGUUAAUCUGCGAAUUCUGCUGU [C32G G50U],0.503
8,GGGGGCCACAGCAGAAGCGUUCACGUCGCGGGCCCUGUCAGAUUCUGGUGAAUCUGCAAAUUCUGCUGU [C32G G58A],0.44
9,GGGGGCCACAGCAGAAGCGUUCACGUCGCGGGCCCUGUCAGAUUCUGGUGAAUCUGCGAAUUCUACUGU [C32G G65A],0.288
10,GGGGGCCACAGCAGAAGCGUUCACGUCGCGGGCCCUGUCAGAUUCUGGUGAAUCUGCGAAUUCUCCUGU [C32G G65C],0.224
11,GGGGGCCACAGCAGAAGCGUUCACGUCGCGGGCCCUGUCAGAUUCUGGUGAAUCUGCGAAUUCUGCUAU [C32G G68A],0.808
12,GGGGGCCACAGCAGAAGCGUUCACGUCGCGGGCCCUGUCAGAUUCUGGUGAAUCUGCGAAUUCUGCUCU [C32G G68C],0.768
13,GGGGGCCACAGCAGAAGCGUUCACGUCGCGGGCCCGGUCAGAUUCUGGUGAAUCUGCGAAUUCUGCUGU [C32G U36G],0.191
14,GGGGGCCACAGCAGAAGCGUUCACGUCGCGGGCCCUGACAGAUUCUGGUGAAUCUGCGAAUUCUGCUGU [C32G U38A],0.443
15,GGGGGCCACAGCAGAAGCGUUCACGUCGCGGGCCCUGCCAGAUUCUGGUGAAUCUGCGAAUUCUGCUGU [C32G U38C],0.235
16,GGGGGCCACAGCAGAAGCGUUCACGUCGCGGGCCCUGGCAGAUUCUGGUGAAUCUGCGAAUUCUGCUGU [C32G U38G],0.207
17,GGGGGCCACAGCAGAAGCGUUCACGUCGCGGGCCCUGUCAGAAUCUGGUGAAUCUGCGAAUUCUGCUGU [C32G U43A],0.238
18,GGGGGCCACAGCAGAAGCGUUCACGUCGCGGGCCCUGUCAGACUCUGGUGAAUCUGCGAAUUCUGCUGU [C32G U43C],0.364
19,GGGGGCCACAGCAGAAGCGUUCACGUCGCGGGCCCUGUCAGAGUCUGGUGAAUCUGCGAAUUCUGCUGU [C32G U43G],0.331
20,GGGGGCCACAGCAGAAGCGUUCACGUCGCGGGCCCUGUCAGAUACUGGUGAAUCUGCGAAUUCUGCUGU [C32G U44A],0.385
21,GGGGGCCACAGCAGAAGCGUUCACGUCGCGGGCCCUGUCAGAUGCUGGUGAAUCUGCGAAUUCUGCUGU [C32G U44G],0.426
22,GGGGGCCACAGCAGAAGCGUUCACGUCGCGGGCCCUGUCAGAUUCAGGUGAAUCUGCGAAUUCUGCUGU [C32G U46A],0.492
23,GGGGGCCACAGCAGAAGCGUUCACGUCGCGGGCCCUGUCAGAUUCGGGUGAAUCUGCGAAUUCUGCUGU [C32G U46G],0.522
24,GGGGGCCACAGCAGAAGCGUUCACGUCGCGGGCCCUGUCAGAUUCUGGAGAAUCUGCGAAUUCUGCUGU [C32G U49A],0.658
25,GGGGGCCACAGCAGAAGCGUUCACGUCGCGGGCCCUGUCAGAUUCUGGCGAAUCUGCGAAUUCUGCUGU [C32G U49C],0.543
26,GGGGGCCACAGCAGAAGCGUUCACGUCGCGGGCCCUGUCAGAUUCUGGUGAAACUGCGAAUUCUGCUGU [C32G U53A],0.266

# Source: the RNAGym collection of RNA variant scans (doi:10.7554/elife.80360)
